# Experimental data as given in patent US20220372155A1 (LYVGEN BIOPHARMA, published 2022).
# Target: T1, human CD40 expressed on CHO cells (human, UniProt P25942 21-277)
# T1 construct: whole, on cells; also used for the reporter cells over-expressing human CD40; also called cellular CD40; CHO-CD40 cells
# Experiment: FACS, CHO cells
# T1 sequence (P25942 21-277): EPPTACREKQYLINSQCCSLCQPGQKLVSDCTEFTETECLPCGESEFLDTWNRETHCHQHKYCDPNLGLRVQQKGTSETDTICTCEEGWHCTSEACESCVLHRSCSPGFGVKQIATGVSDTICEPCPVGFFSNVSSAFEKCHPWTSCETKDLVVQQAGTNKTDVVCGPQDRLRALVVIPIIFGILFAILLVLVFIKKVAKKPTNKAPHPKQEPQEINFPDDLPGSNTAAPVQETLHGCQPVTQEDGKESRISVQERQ
row,binding result,Binder
1,binds,"Ly403 (bispecific antibody, human IgG1, kappa, Ly311 HC (IgG1 mutated Fc) + Ly311 LC-TM740 scFv VL-VH) heavy: EVQLVESGGGVVQPGRSLRLSCSASGFDFTTYWMSWVRQAPGKGLEWIGEIHPDSSTINYAPSLKDRFTISRDNAKNTLFLQMDSLRPEDTGVYFCASLYFGFPWFAYWGQGTPVTVSSASTKGPSVFPLAPSSKSTSGGTAALGCLVKDYFPEPVTVSWNSGALTSGVHTFPAVLQSSGLYSLSSVVTVPSSSLGTQTYICNVNHKPSNTKVDKKVEPKSCDKTHTCPPCPAPELLGPSVFLFPPKPKDTLMISRTPEVTCVVVDVSHEDPEVKFNWYVDGVEVHNAKTKPREEQYNSTYRVVSVLTVLHQDWLNGKEYKCKVSNKALPAPIEKTISKAKGQPREPQVYTLPPSREEMTKNQVSLTCLVKGFYPSDIAVEWESNGQPENNYKTTPPVLDSDGSFFLYSKLTVDKSRWQQGNVFSCSVMHEALHNHYTQKSLSLSPGK light: DIQLTQSPSSLSASVGDRVTITCKASQDVGTSVAWYQQKPGKAPKLLIYWTSTRHTGVPSRFSGSGSGTDFTFTISSLQPEDIATYYCQQYSLYRSFGQGTKVEIKRTVAAPSVFIFPPSDEQLKSGTASVVCLLNNFYPREAKVQWKVDNALQSGNSQESVTEQDSKDSTYSLSSTLTLSKADYEKHKVYACEVTHQGLSSPVTKSFNRGECGGGGSGGGGSGGGGSGGGGSDIQMTQSPSSLSASVGDRVTITCKASQNIYIYLNWYQQKPGKAPKLLIYNTNNLQTGVPSRFSGSGSGTDFTLTISSLQPEDFATYYCLQHSSRRTFGGGTKVEIKGGGGSGGGGSGGGGSGGGGSQVQLVESGGGLVQPGGSLKLSCATSGFNFNDYFMNWVRQASGKGLEWVGQIRNKNYNYATYYTESLEGRVTISRDDSKNTAYLQMNSLKTEDTAVYYCTSYYYDGFADYFDYWGQGTTVTVSS"
2,binds,"Ly404 (bispecific antibody, human IgG1, kappa, Ly311 HC (IgG1 mutated Fc) + Ly311 LC-TM740 scFv VH-VL) heavy: EVQLVESGGGVVQPGRSLRLSCSASGFDFTTYWMSWVRQAPGKGLEWIGEIHPDSSTINYAPSLKDRFTISRDNAKNTLFLQMDSLRPEDTGVYFCASLYFGFPWFAYWGQGTPVTVSSASTKGPSVFPLAPSSKSTSGGTAALGCLVKDYFPEPVTVSWNSGALTSGVHTFPAVLQSSGLYSLSSVVTVPSSSLGTQTYICNVNHKPSNTKVDKKVEPKSCDKTHTCPPCPAPELLGPSVFLFPPKPKDTLMISRTPEVTCVVVDVSHEDPEVKFNWYVDGVEVHNAKTKPREEQYNSTYRVVSVLTVLHQDWLNGKEYKCKVSNKALPAPIEKTISKAKGQPREPQVYTLPPSREEMTKNQVSLTCLVKGFYPSDIAVEWESNGQPENNYKTTPPVLDSDGSFFLYSKLTVDKSRWQQGNVFSCSVMHEALHNHYTQKSLSLSPGK light: DIQLTQSPSSLSASVGDRVTITCKASQDVGTSVAWYQQKPGKAPKLLIYWTSTRHTGVPSRFSGSGSGTDFTFTISSLQPEDIATYYCQQYSLYRSFGQGTKVEIKRTVAAPSVFIFPPSDEQLKSGTASVVCLLNNFYPREAKVQWKVDNALQSGNSQESVTEQDSKDSTYSLSSTLTLSKADYEKHKVYACEVTHQGLSSPVTKSFNRGECGGGGSGGGGSGGGGSGGGGSQVQLVESGGGLVQPGGSLKLSCATSGFNFNDYFMNWVRQASGKGLEWVGQIRNKNYNYATYYTESLEGRVTISRDDSKNTAYLQMNSLKTEDTAVYYCTSYYYDGFADYFDYWGQGTTVTVSSGGGGSGGGGSGGGGSGGGGSDIQMTQSPSSLSASVGDRVTITCKASQNIYIYLNWYQQKPGKAPKLLIYNTNNLQTGVPSRFSGSGSGTDFTLTISSLQPEDFATYYCLQHSSRRTFGGGTKVEIK"
3,binds,"Ly401 (bispecific antibody, human IgG1, kappa, Ly311 HC (IgG1 mutated Fc)-TM740 scFv VL-VH + Ly311 LC) heavy: EVQLVESGGGVVQPGRSLRLSCSASGFDFTTYWMSWVRQAPGKGLEWIGEIHPDSSTINYAPSLKDRFTISRDNAKNTLFLQMDSLRPEDTGVYFCASLYFGFPWFAYWGQGTPVTVSSASTKGPSVFPLAPSSKSTSGGTAALGCLVKDYFPEPVTVSWNSGALTSGVHTFPAVLQSSGLYSLSSVVTVPSSSLGTQTYICNVNHKPSNTKVDKKVEPKSCDKTHTCPPCPAPELLGPSVFLFPPKPKDTLMISRTPEVTCVVVDVSHEDPEVKFNWYVDGVEVHNAKTKPREEQYNSTYRVVSVLTVLHQDWLNGKEYKCKVSNKALPAPIEKTISKAKGQPREPQVYTLPPSREEMTKNQVSLTCLVKGFYPSDIAVEWESNGQPENNYKTTPPVLDSDGSFFLYSKLTVDKSRWQQGNVFSCSVMHEALHNHYTQKSLSLSPGGGGGSGGGGSGGGGSGGGGSDIQMTQSPSSLSASVGDRVTITCKASQNIYIYLNWYQQKPGKAPKLLIYNTNNLQTGVPSRFSGSGSGTDFTLTISSLQPEDFATYYCLQHSSRRTFGGGTKVEIKGGGGSGGGGSGGGGSGGGGSQVQLVESGGGLVQPGGSLKLSCATSGFNFNDYFMNWVRQASGKGLEWVGQIRNKNYNYATYYTESLEGRVTISRDDSKNTAYLQMNSLKTEDTAVYYCTSYYYDGFADYFDYWGQGTTVTVSS light: DIQLTQSPSSLSASVGDRVTITCKASQDVGTSVAWYQQKPGKAPKLLIYWTSTRHTGVPSRFSGSGSGTDFTFTISSLQPEDIATYYCQQYSLYRSFGQGTKVEIKRTVAAPSVFIFPPSDEQLKSGTASVVCLLNNFYPREAKVQWKVDNALQSGNSQESVTEQDSKDSTYSLSSTLTLSKADYEKHKVYACEVTHQGLSSPVTKSFNRGEC"
4,binds,"Ly402 (bispecific antibody, human IgG1, kappa, Ly311 HC (IgG1 mutated Fc)-TM740 scFv VH-VL + Ly311 LC) heavy: EVQLVESGGGVVQPGRSLRLSCSASGFDFTTYWMSWVRQAPGKGLEWIGEIHPDSSTINYAPSLKDRFTISRDNAKNTLFLQMDSLRPEDTGVYFCASLYFGFPWFAYWGQGTPVTVSSASTKGPSVFPLAPSSKSTSGGTAALGCLVKDYFPEPVTVSWNSGALTSGVHTFPAVLQSSGLYSLSSVVTVPSSSLGTQTYICNVNHKPSNTKVDKKVEPKSCDKTHTCPPCPAPELLGPSVFLFPPKPKDTLMISRTPEVTCVVVDVSHEDPEVKFNWYVDGVEVHNAKTKPREEQYNSTYRVVSVLTVLHQDWLNGKEYKCKVSNKALPAPIEKTISKAKGQPREPQVYTLPPSREEMTKNQVSLTCLVKGFYPSDIAVEWESNGQPENNYKTTPPVLDSDGSFFLYSKLTVDKSRWQQGNVFSCSVMHEALHNHYTQKSLSLSPGGGGGSGGGGSGGGGSGGGGSQVQLVESGGGLVQPGGSLKLSCATSGFNFNDYFMNWVRQASGKGLEWVGQIRNKNYNYATYYTESLEGRVTISRDDSKNTAYLQMNSLKTEDTAVYYCTSYYYDGFADYFDYWGQGTTVTVSSGGGGSGGGGSGGGGSGGGGSDIQMTQSPSSLSASVGDRVTITCKASQNIYIYLNWYQQKPGKAPKLLIYNTNNLQTGVPSRFSGSGSGTDFTLTISSLQPEDFATYYCLQHSSRRTFGGGTKVEIK light: DIQLTQSPSSLSASVGDRVTITCKASQDVGTSVAWYQQKPGKAPKLLIYWTSTRHTGVPSRFSGSGSGTDFTFTISSLQPEDIATYYCQQYSLYRSFGQGTKVEIKRTVAAPSVFIFPPSDEQLKSGTASVVCLLNNFYPREAKVQWKVDNALQSGNSQESVTEQDSKDSTYSLSSTLTLSKADYEKHKVYACEVTHQGLSSPVTKSFNRGEC"
5,binds,"Ly405 (bispecific antibody, human IgG1, kappa, Ly312 HC (IgG1 mutated Fc)-TM740 scFv VL-VH + Ly312 LC) heavy: EVQLVESGGGLVQPGGSLRLSCAASGFNIKDTYMHWVRQAPGKGLEWVARIDPANGNSKYADSVKGRFTISADTSKNTAYLQMNSLRAEDTAVYYCAPFGYYVSDYAMAYWGQGTLVTVSSASTKGPSVFPLAPSSKSTSGGTAALGCLVKDYFPEPVTVSWNSGALTSGVHTFPAVLQSSGLYSLSSVVTVPSSSLGTQTYICNVNHKPSNTKVDKKVEPKSCDKTHTCPPCPAPELLGPSVFLFPPKPKDTLMISRTPEVTCVVVDVSHEDPEVKFNWYVDGVEVHNAKTKPREEQYNSTYRVVSVLTVLHQDWLNGKEYKCKVSNKALPAPIEKTISKAKGQPREPQVYTLPPSREEMTKNQVSLTCLVKGFYPSDIAVEWESNGQPENNYKTTPPVLDSDGSFFLYSKLTVDKSRWQQGNVFSCSVMHEALHNHYTQKSLSLSPGGGGGSGGGGSGGGGSGGGGSDIQMTQSPSSLSASVGDRVTITCKASQNIYIYLNWYQQKPGKAPKLLIYNTNNLQTGVPSRFSGSGSGTDFTLTISSLQPEDFATYYCLQHSSRRTFGGGTKVEIKGGGGSGGGGSGGGGSGGGGSQVQLVESGGGLVQPGGSLKLSCATSGFNFNDYFMNWVRQASGKGLEWVGQIRNKNYNYATYYTESLEGRVTISRDDSKNTAYLQMNSLKTEDTAVYYCTSYYYDGFADYFDYWGQGTTVTVSS light: DIQLTQSPSSLSASVGDRVTITCRAGESVDIFGVGFLHWYQQKPGKAPKLLIYRASNLESGVPSRFSGSGSRTDFTLTISSLQPEDFATYYCQQTNEDPYTFGQGTKVEIKRTVAAPSVFIFPPSDEQLKSGTASVVCLLNNFYPREAKVQWKVDNALQSGNSQESVTEQDSKDSTYSLSSTLTLSKADYEKHKVYACEVTHQGLSSPVTKSFNRGEC"
6,binds,"Ly406 (bispecific antibody, human IgG1, kappa, Ly312 HC (IgG1 mutated Fc)-TM740 scFv VH-VL + Ly312 LC) heavy: EVQLVESGGGLVQPGGSLRLSCAASGFNIKDTYMHWVRQAPGKGLEWVARIDPANGNSKYADSVKGRFTISADTSKNTAYLQMNSLRAEDTAVYYCAPFGYYVSDYAMAYWGQGTLVTVSSASTKGPSVFPLAPSSKSTSGGTAALGCLVKDYFPEPVTVSWNSGALTSGVHTFPAVLQSSGLYSLSSVVTVPSSSLGTQTYICNVNHKPSNTKVDKKVEPKSCDKTHTCPPCPAPELLGPSVFLFPPKPKDTLMISRTPEVTCVVVDVSHEDPEVKFNWYVDGVEVHNAKTKPREEQYNSTYRVVSVLTVLHQDWLNGKEYKCKVSNKALPAPIEKTISKAKGQPREPQVYTLPPSREEMTKNQVSLTCLVKGFYPSDIAVEWESNGQPENNYKTTPPVLDSDGSFFLYSKLTVDKSRWQQGNVFSCSVMHEALHNHYTQKSLSLSPGGGGGSGGGGSGGGGSGGGGSQVQLVESGGGLVQPGGSLKLSCATSGFNFNDYFMNWVRQASGKGLEWVGQIRNKNYNYATYYTESLEGRVTISRDDSKNTAYLQMNSLKTEDTAVYYCTSYYYDGFADYFDYWGQGTTVTVSSGGGGSGGGGSGGGGSGGGGSDIQMTQSPSSLSASVGDRVTITCKASQNIYIYLNWYQQKPGKAPKLLIYNTNNLQTGVPSRFSGSGSGTDFTLTISSLQPEDFATYYCLQHSSRRTFGGGTKVEIK light: DIQLTQSPSSLSASVGDRVTITCRAGESVDIFGVGFLHWYQQKPGKAPKLLIYRASNLESGVPSRFSGSGSRTDFTLTISSLQPEDFATYYCQQTNEDPYTFGQGTKVEIKRTVAAPSVFIFPPSDEQLKSGTASVVCLLNNFYPREAKVQWKVDNALQSGNSQESVTEQDSKDSTYSLSSTLTLSKADYEKHKVYACEVTHQGLSSPVTKSFNRGEC"
